For experiment [1], the target named is anti-S1 fragment of SARS-CoV-2's spike protein antibody. As to the kind of experiment: lateral flow dipstick; capture antibody trapped in 5% acrylamide hydrogel; S1-coated gold nanoparticles as reporter (FIG. 3, panel b).
The target is the same in experiment [2]. Put plainly: lateral flow dipstick; capture antibody immobilized by physical adsorption; S1-coated gold nanoparticles as reporter (FIG. 3, panel a).
Experiment [3] has the same target. Put plainly: lateral flow dipstick; separate experiment with improved hydrogel and streptavidin; S1-coated gold nanoparticles as reporter (FIG. 3, panel d).
The target is the same in experiment [4]. As to the kind of experiment: lateral flow dipstick; capture antibody held by streptavidin trapped in the hydrogel; S1-coated gold nanoparticles as reporter (FIG. 3, panel c).

Consider “biotin-SP-conjugated anti-human IgG Fc (antibody)”, for which the limit of detection in experiment [1] amounted to 1 ng; in experiment [2], 10 ng; in experiment [3], 0.05 ng; in experiment [4] it was 0.1 ng.

The values above are taken from patent publication US20230288413A1.
